In PMC7547737:

How the values were obtained:
[1] = target: FLAG-AKT^T308A (UniProt P31749); assay: co-IP; SK-Br3 cells transfected with FLAG-tagged AKT constructs, starved with U0126, treated with TZ 20 min, cross-linked with DSP; anti-FLAG magnetic beads, 3 h at 4 °C; Western blot, amounts normalised on precipitated protein and input
[2] = target: FLAG-AKT^T308D (UniProt P31749); assay: as above

Ser/Thr-protein phosphatase 2A (PP2A)-catalytic subunit beta isoform (from UniProt P62714 1-309) (enzyme)
percent co-precipitated against wt AKT [1]: 60% | percent co-precipitated against wt AKT [2]: 60%
